Laboratory results taken from patent publication US20220372138A1 (IOMX THERAPEUTICS, published 2022).
Like-named read-outs stand apart in the source and are kept apart here. One block for each binder: values may come before it.

How the values were obtained:
[1] = target: T1, human IGSF11 (VSIG3) expressed on cells (human, UniProt Q5DX21 23-431); test: IgG FACS Colo741
T1 sequence: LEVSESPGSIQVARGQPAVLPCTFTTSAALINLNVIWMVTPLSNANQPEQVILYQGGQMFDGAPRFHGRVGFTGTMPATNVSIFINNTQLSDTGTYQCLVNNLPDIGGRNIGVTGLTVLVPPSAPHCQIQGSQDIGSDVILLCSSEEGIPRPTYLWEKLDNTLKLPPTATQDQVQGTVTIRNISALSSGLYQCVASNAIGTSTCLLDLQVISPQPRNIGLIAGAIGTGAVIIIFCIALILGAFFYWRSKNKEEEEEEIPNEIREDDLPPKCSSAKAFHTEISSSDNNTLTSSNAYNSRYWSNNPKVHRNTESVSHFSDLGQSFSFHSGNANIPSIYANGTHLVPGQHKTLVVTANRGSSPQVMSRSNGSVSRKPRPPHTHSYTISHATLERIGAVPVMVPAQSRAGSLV
From the text: (§1) Unbound antibodies were removed by washing the cells three time with FACS buffer. Bound antibodies were detected with a mouse anti-human IgG antibody conjugated with AlexaFluor647.

[2] = target: T2, murine IGSF11 expressed on cells (mouse, UniProt P0C673 23-428); test: IgG FACS MC38-wt
T2 construct: MC38-IGSF11, CT26-IGSF11, MC38-wt (naturally expresses murine IGSF11)
T2 sequence: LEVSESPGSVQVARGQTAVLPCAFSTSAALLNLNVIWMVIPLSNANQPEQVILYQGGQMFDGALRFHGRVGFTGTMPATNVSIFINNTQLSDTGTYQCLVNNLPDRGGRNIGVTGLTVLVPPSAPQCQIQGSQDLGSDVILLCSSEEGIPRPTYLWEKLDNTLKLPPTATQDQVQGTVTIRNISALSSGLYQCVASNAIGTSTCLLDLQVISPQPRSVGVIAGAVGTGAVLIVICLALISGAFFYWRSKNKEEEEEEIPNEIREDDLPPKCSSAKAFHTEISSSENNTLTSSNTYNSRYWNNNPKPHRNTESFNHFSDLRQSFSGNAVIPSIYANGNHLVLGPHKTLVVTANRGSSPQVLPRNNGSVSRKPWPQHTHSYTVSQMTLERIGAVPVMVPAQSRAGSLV
From the text: as §1

[3] = target: T3, full-length ECD of human IGSF11 fused to murine Fc (human, UniProt Q5DX21 23-241); test: IgG ELISA
T3 construct: also called Fc-fusion IGSF11 ECD; not shown: murine Fc
T3 sequence: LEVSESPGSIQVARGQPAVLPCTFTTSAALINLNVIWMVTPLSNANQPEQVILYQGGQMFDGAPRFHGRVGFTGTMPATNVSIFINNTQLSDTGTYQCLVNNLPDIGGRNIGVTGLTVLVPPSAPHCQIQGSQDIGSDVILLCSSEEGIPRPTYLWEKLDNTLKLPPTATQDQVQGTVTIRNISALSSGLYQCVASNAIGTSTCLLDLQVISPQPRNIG

[4] = target: T4, IgV domain of human IGSF11 fused to murine IgG2a Fc (human, UniProt Q5DX21 23-143); test: IgG ELISA
T4 construct: not shown: murine IgG2a Fc-region
T4 sequence: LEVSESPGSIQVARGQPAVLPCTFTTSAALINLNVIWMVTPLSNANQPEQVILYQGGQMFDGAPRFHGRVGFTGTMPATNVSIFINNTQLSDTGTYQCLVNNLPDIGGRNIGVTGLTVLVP

[5] = target: T5, human IGSF11 (VSIG3) ECD, His-tagged (human, UniProt Q5DX21 23-241); test: IgG1 ELISA EC50 <0.02 nM
T5 construct: in part bought (SinoBiological 13094-H08H); also called HIS-IGSF11; IGSF11-HIS; not shown: His tag
T5 sequence: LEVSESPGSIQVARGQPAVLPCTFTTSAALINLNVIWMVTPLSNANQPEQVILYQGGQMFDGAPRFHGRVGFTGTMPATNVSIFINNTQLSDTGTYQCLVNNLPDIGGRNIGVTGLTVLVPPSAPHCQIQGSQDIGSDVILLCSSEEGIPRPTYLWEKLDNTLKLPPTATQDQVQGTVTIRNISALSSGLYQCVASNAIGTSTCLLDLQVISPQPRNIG

[6] = target: T6, extracellular domain (ECD) of human IGSF11 (VSIG3), recombinant (human, UniProt Q5DX21 23-241); test: SPR
T6 construct: biotinylated where captured on streptavidin; tags of the reagent not always stated; also called IGSF11 (ECD domain); ECD-IGSF11
T6 sequence: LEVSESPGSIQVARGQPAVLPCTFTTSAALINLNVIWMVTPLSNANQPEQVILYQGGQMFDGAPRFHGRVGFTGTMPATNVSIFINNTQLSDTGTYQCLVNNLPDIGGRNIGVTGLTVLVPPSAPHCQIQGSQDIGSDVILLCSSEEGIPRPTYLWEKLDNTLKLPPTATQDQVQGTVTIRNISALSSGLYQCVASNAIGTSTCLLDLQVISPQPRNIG

[7] = target: T1, human IGSF11 (VSIG3) expressed on cells; test: IgG1 FACS HEK-OE
[8] = target: T1, human IGSF11 (VSIG3) expressed on cells; test: IgG1 FACS DMS 273
[9] = target: T1, human IGSF11 (VSIG3) expressed on cells; test: FACS, DMS 273 cells with scrambled control siRNA (SC)
[10] = target: T1, human IGSF11 (VSIG3) expressed on cells; test: FACS, M579-A2-luc cells with scrambled control siRNA (SC)
[11] = target: T1, human IGSF11 (VSIG3) expressed on cells; test: FACS, DMS 273 cells with IGSF11 siRNA (KD, knock-down control)
[12] = target: T1, human IGSF11 (VSIG3) expressed on cells; test: FACS, M579-A2-luc cells with IGSF11 siRNA (KD, knock-down control)
[13] = target: T5, human IGSF11 (VSIG3) ECD, His-tagged; test: ELISA: IGSF11-HIS coated, IgG1 dilution series, anti-human antibody-HRP, TMB
[14] = target: T5, human IGSF11 (VSIG3) ECD, His-tagged; test: blocking ELISA: VSIR-Fc immobilised, IgG dilution series pre-incubated with 200 nM IGSF11 ECD-His, bound IGSF11 detected with anti-His-HRP
[15] = target: T5, human IGSF11 (VSIG3) ECD, His-tagged; test: ELISA: IGSF11-HIS coated, IgG1 dilution series, anti-human antibody-HRP, TMB; remark: listed apart in the source
[16] = target: T5, human IGSF11 (VSIG3) ECD, His-tagged; test: blocking ELISA: VSIR-Fc immobilised, IgG dilution series pre-incubated with 200 nM IGSF11 ECD-His, bound IGSF11 detected with anti-His-HRP; remark: listed apart in the source
[17] = target: T6, extracellular domain (ECD) of human …; test: BLI
[18] = target: T6, extracellular domain (ECD) of human …; test: SPR; remark: listed apart in the source
[19] = target: T5, human IGSF11 (VSIG3) ECD, His-tagged; test: IgG1 ELISA EC50 0.02-0.05 nM

- EC50 [1]: < 0.5 nM
- EC50 [2]: < 0.5 nM
B1: D-223 (IgG format) (antibody, V domains shown)
VH: EVQLVESGGGLVKPGGSLRLSCAASGFTFSHAWISWVRQAPGKGLEWVGQIKGGPGSGGTSYAEPVKGRFTISRDDSKNTLYLQMNSLKTEDTAVYYCARLGIYSGFDYWGQGTLVTVSS
VL: SYELTQPPSVSVSPGQTASITCSGDKLGDKYASWYQQKPGQSPVLVIYQDSKRPSGIPERFSGSNSGNTATLTISGTQAEDEADYYCHSYLHLPPTVVFGGGTKLTVL

- EC50 (read off the curve) [15]: ~0.008 nM
- IC50 (read off the curve) [16]: ~2 nM
B5: B-003 (chain-swapped IgG1) (antibody, V domains shown)
VH: EVQLLESGGGLIQPGGSLRLSCAVSGFTVSSNYMSWVRQAPGKGLEWVSVIYSGGSTYYADSVKGRFTISRDNSKNTLYLQMNSLRAEDTAVYYCARGNPYYYGDLQVNFDYWGQGTLVTVSS
VL: QAVVTQEPSLTVSPGETVTLTCASSTGAVTSGYYPNWFQQRPGQAPRALIYSTSNKDSWTPARFSGSLLGGKAALTLSGVQPEDEAEYYCLLYYGGAWVFGGGTKLTVL
notes: human IgG1 format; also called B3

- Kd [17]: 1 to 10 nM
- Kd [18]: 250 to 500 nM
- EC50 [7]: 10 to 50 nM
- EC50 [8]: 10 to 50 nM
- EC50 [19]: 0.02 to 0.05 nM
- % binding (FACS heat-map) [9]: 75.8%
- % binding (FACS heat-map) [10]: 65.4%
- % binding (FACS heat-map) [11]: 4.77%
- % binding (FACS heat-map) [12]: 2.35%
- EC50 (read off the curve) [15]: ~0.008 nM
- IC50 (read off the curve) [16]: ~2 nM
B6: A-012 (IgG1 format) (antibody, V domains shown)
VH: EVQLLESGGGLIQPGGSLRLSCAVSGFTVSSNYMSWVRQAPGKGLEWVSVIYSGGSTYYADSVKGRFTISRDNSKNTLYLQMNSLRAEDTAVYYCARGNPYYYGDLQVNFDYWGQGTLVTVSS
VL: QAVVTQEPSLTVSPGGTVTLTCASSTGAVTSGYYPNWFQQKPGQAPRALIYSTSNKHSWTPARFSGSLLGGKAALTLSGVQPEDEAEYYCLLYYGGAWVFGGGTKLTVL
notes: human IgG1 format

- Kd [6]: 250 to 500 nM
- EC50 [7]: 10 to 50 nM
- IC50 (read off the curve) [16]: ~2 nM
B7: B-001 (chain-swapped IgG1) (antibody, V domains shown)
VH: EVQLLESGGGLIQPGGSLRLSCAVSGFTVSSNYMSWVRQAPGKGLEWVSVIYSGGSTYYADSVKGRFTISRDNSKNTLYLQMNSLRAEDTAVYYCARGNPYYYGDLQVNFDYWGQGTLVTVSS
VL: QAVVTQEPSLTVSPGGTVTLTCASSTGAVTSAYYPNWFQQKPGQAPRALIYSTSNKHSWTPARFSGSLLGGKAALTLSGVQPEDEADYYCLLYYGGAWVFGGGTKLTVL
notes: human IgG1 format; also called B1

The next lines start with the binder.

B2: A-010 (IgG1 format) (antibody, V domains shown)
VH: QVQLVQSGAEVKKPGASVKVSCKASGYTFTSYGISWVRQAPGQGLEWMGWISAYNGNTNYAQKLQGRVTMTTDTSTSTAYMELRSLRSDDTAVYYCARVPAWSGQFDYWGQGTLVTVSS
VL: QSALTQPASVSGSPGQSITISCTGSSSDVGGYNYVSWYQQYPGKAPKLMIYDVRSRPSGVSNRFSGSKSGNTASLTISGLQAEDEADYYCTSYTSSNTLVIFGGGTKVTVL
notes: human IgG1 format
- EC50 [3]: < 1 nM
- EC50 [4]: < 1 nM
- EC50 [5]: < 0.02 nM

B3: D-116 (IgG format) (antibody, V domains shown)
VH: EVQLLESGGGLVQPGGSLRLSCAASGFTFKHSAISWVRQAPGKGLEWVSAISYGGGSQYYADSVKGRFTISRDNSKNTLYLQMNSLRAEDTAVYYCARDSRDAYGVAFDLWGQGTMVTVSS
VL: ASVLTQPPSVSAAPGQKVTISCSGSSSNIGNNYVSWYQQLPGTAPKLLIYDNNKRPSGIPDRFSGSKSGTSATLGITGLQAEDEADYYCQSYGHRSFVFGGGTKLTVL
- EC50 [1]: < 0.5 nM
- EC50 [2]: < 0.1 nM

B4: B-002 (chain-swapped IgG1) (antibody, V domains shown)
VH: EVQLVESGGGLIQPGGSLRLSCAASGFTVSSNYMSWVRQAPGKGLEWVSVIYSGGSTYYADSVKGRFTISRDNSKNTLYLQMNSLRAEDTAVYYCARGNPYYYGDLQVNFDYWGQGTLVTVSS
VL: QAVVTQEPSLTVSPGGTVTLTCASSTGAVTSGYYPNWFQQKPGQAPRALIYSTSNKHSWTPARFSGSLLGGKAALTLSGVQPEDEAEYYCLLYYGGAWVFGGGTKLTVL
notes: human IgG1 format; also called B2
- Kd [6]: 100 to 250 nM
- EC50 [7]: 10 to 50 nM
- EC50 [8]: > 50 nM
- % binding (FACS heat-map) [9]: 80.1%
- % binding (FACS heat-map) [10]: 70.7%
- % binding (FACS heat-map) [11]: 8.68%
- % binding (FACS heat-map) [12]: 2.77%
- EC50 (read off the curve) [13]: ~0.01 nM
- IC50 (read off the curve) [14]: 4 to 5 nM

B8: B-005 (chain-swapped IgG1) (antibody, V domains shown)
VH: EVQLLESGGGLIQPGGSLRLSCAVSGFTVSSNYMSWVRQAPGKGLEWVSVIYSGGSTYYADSVKGRFTISRDNSKNTLYLQMNSLRAEDTAVYYCARGNPYYYGDLQVNFDYWGQGTLVTVSS
VL: QAVVTQEPSLTVSPGGTVTPTCGSSTGAVTSGNLPNWFQQKPGQAPRALIYSTSNKHSWTPARISGSLLGGKAALTLSGVQPEDEAEYYCLLYYGGAWVFGGGTKLTVL
notes: human IgG1 format; also called B5
- EC50 (read off the curve) [15]: ~0.01 nM
- IC50 (read off the curve) [16]: ~2 nM

B9: A-004 (IgG1 format) (antibody, V domains shown)
VH: EVQLVESGGGLVKPGGSLRLSCAASGFTFSSYSMNWVRQAPGKGLEWVSSISSSSSYIYYADSVKGRFTISRDNAKNSLYLQMNSLRAEDTAVYYCARGQLLWFGESALIDAFDIWGQGTMVTVSS
VL: EIVLTQSPSSLSASVGDRVTITCRASQSISSYLNWYQLKPGKAPKLLIYAASILQSGVPSRFSGSGSGTDFTLTISSLQPEDFAAYYCQQSYSTPRTFGQGTKLEIK
notes: human IgG1 format
- Kd [18]: 100 to 250 nM
- EC50 [3]: 1 to 20 nM
- EC50 [4]: 1 to 20 nM
- EC50 [5]: < 0.02 nM
